The supplement of paper PMC10567573

B1: POLD4 (parent)
chain: ITDSYPVVKRREGPAGHSKGELAP
B2: ZNF263 (parent)
chain: PEASHLRFRRFRFQEAAGPREALS
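Further: lentivirally expressed fusions sorted by FACS into six bins by GFP to DsRed ratio, PSI derived from sequencing read proportions per bin multiplied by bin number.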

Variants of: B1
Test: protein stability index of a GFP-peptide fusion (GPS, HEK-293T) (PSI 1-6); higher = more stable
Conditions: c terminus: a fixed tail appended
In the case of ITDSYPVVKRREGPAGHSKGENAP [L22N], the protein stability index is reported as 3.31. For ITDSYPVVKRREGPAGHSKGECAP [L22C], the protein stability index was 3.26. With ITDSYPVVKRREGPAGHSKGEPAP [L22P] the protein stability index was 3.31. ITDSYPVVKRREGPAGHSKGERAP [L22R] showed a protein stability index of 2.57. ITDSYPVVKRREGPAGHSKGEIAP [L22I] gave a protein stability index of 3.1. Variant ITDSYPVVKRREGPAGHSKGEDAP [L22D] has a protein stability index of 3.81. ITDSYPVVKRREGPAGHSKGEHAP [L22H] gave a protein stability index of 3.2. For ITDSYPVVKRREGPAGHSKGEYAP [L22Y], the protein stability index was 2.52. Variant ITDSYPVVKRREGPAGHSKGEFAP [L22F] has a protein stability index of 3.27. Variant ITDSYPVVKRREGPAGHSKGEQAP [L22Q] has a protein stability index of 3.89. In the case of ITDSYPVVKRREGPAGHSKGESAP [L22S], the protein stability index is reported as 3.27. Variant ITDSYPVVKRREGPAGHSKGETAP [L22T] has a protein stability index of 3.21. Work on ITDSYPVVKRREGPAGHSKGEAAP [L22A] yielded a protein stability index of 3.62. With ITDSYPVVKRREGPAGHSKGEMAP [L22M] the protein stability index was 3.21. With ITDSYPVVKRREGPAGHSKGEEAP [L22E] the protein stability index was 3.94. With ITDSYPVVKRREGPAGHSKGEKAP [L22K] the protein stability index was 3.71. Work on ITDSYPVVKRREGPAGHSKGEGAP [L22G] yielded a protein stability index of 2.91. For ITDSYPVVKRREGPAGHSKGEWAP [L22W], the protein stability index was 3.04. ITDSYPVVKRREGPAGHSKGEVAP [L22V] gave a protein stability index of 3.42. Work on ITDSYPVVKRREGPAGHSKGQLAP [E21Q] yielded a protein stability index of 4.12. Variant ITDSYPVVKRREGPAGHSKGGLAP [E21G] has a protein stability index of 3.23. For ITDSYPVVKRREGPAGHSKGLLAP [E21L], the protein stability index was 2.85. Variant ITDSYPVVKRREGPAGHSKGCLAP [E21C] has a protein stability index of 3.14. In the case of ITDSYPVVKRREGPAGHSKGHLAP [E21H], the protein stability index is reported as 3.23. With ITDSYPVVKRREGPAGHSKGILAP [E21I] the protein stability index was 2.96. In the case of ITDSYPVVKRREGPAGHSKGDLAP [E21D], the protein stability index is reported as 3.37. Work on ITDSYPVVKRREGPAGHSKGWLAP [E21W] yielded a protein stability index of 2.84. With ITDSYPVVKRREGPAGHSKGMLAP [E21M] the protein stability index was 2.6. In the case of ITDSYPVVKRREGPAGHSKGPLAP [E21P], the protein stability index is reported as 4.46. ITDSYPVVKRREGPAGHSKGRLAP [E21R] showed a protein stability index of 2.13. ITDSYPVVKRREGPAGHSKGSLAP [E21S] gave a protein stability index of 2.89. ITDSYPVVKRREGPAGHSKGVLAP [E21V] gave a protein stability index of 3.03. ITDSYPVVKRREGPAGHSKGTLAP [E21T] gave a protein stability index of 2.75. Variant ITDSYPVVKRREGPAGHSKGNLAP [E21N] has a protein stability index of 3.1. In the case of ITDSYPVVKRREGPAGHSKGKLAP [E21K], the protein stability index is reported as 3. With ITDSYPVVKRREGPAGHSKGFLAP [E21F] the protein stability index was 2.64. ITDSYPVVKRREGPAGHSKGELAW [P24W] showed a protein stability index of 2.73. ITDSYPVVKRREGPAGHSKGELAI [P24I] showed a protein stability index of 1.97. Work on ITDSYPVVKRREGPAGHSKGELAL [P24L] yielded a protein stability index of 3.56. In the case of ITDSYPVVKRREGPAGHSKGELAM [P24M], the protein stability index is reported as 2.89. For ITDSYPVVKRREGPAGHSKGELAV [P24V], the protein stability index was 2.19. Work on ITDSYPVVKRREGPAGHSKGELAC [P24C] yielded a protein stability index of 3.13. ITDSYPVVKRREGPAGHSKGELAN [P24N] gave a protein stability index of 3.62. With ITDSYPVVKRREGPAGHSKGELAR [P24R] the protein stability index was 2.77. Work on ITDSYPVVKRREGPAGHSKGELAS [P24S] yielded a protein stability index of 3.93. With ITDSYPVVKRREGPAGHSKGELAQ [P24Q] the protein stability index was 4.1. Work on ITDSYPVVKRREGPAGHSKGELAA [P24A] yielded a protein stability index of 2.56. ITDSYPVVKRREGPAGHSKGELAD [P24D] showed a protein stability index of 2.5. Work on ITDSYPVVKRREGPAGHSKGELAF [P24F] yielded a protein stability index of 4.06. With ITDSYPVVKRREGPAGHSKGELAY [P24Y] the protein stability index was 2.38. In the case of ITDSYPVVKRREGPAGHSKGELAE [P24E], the protein stability index is reported as 3.66. For ITDSYPVVKRREGPAGHSKGELNP [A23N], the protein stability index was 3.05. Variant ITDSYPVVKRREGPAGHSKGELDP [A23D] has a protein stability index of 2.69. With ITDSYPVVKRREGPAGHSKGELLP [A23L] the protein stability index was 3.2. ITDSYPVVKRREGPAGHSKGELEP [A23E] gave a protein stability index of 3.21. With ITDSYPVVKRREGPAGHSKGELVP [A23V] the protein stability index was 2.8. Work on ITDSYPVVKRREGPAGHSKGELWP [A23W] yielded a protein stability index of 3.43. In the case of ITDSYPVVKRREGPAGHSKGELIP [A23I], the protein stability index is reported as 3.24. For ITDSYPVVKRREGPAGHSKGELYP [A23Y], the protein stability index was 3.21. ITDSYPVVKRREGPAGHSKGELFP [A23F] showed a protein stability index of 3.27. With ITDSYPVVKRREGPAGHSKGELSP [A23S] the protein stability index was 3.59. For ITDSYPVVKRREGPAGHSKGELRP [A23R], the protein stability index was 3.01. For ITDSYPVVKRREGPAGHSKGELMP [A23M], the protein stability index was 2.1. ITDSYPVVKRREGPAGHSKGELTP [A23T] gave a protein stability index of 2.68. In the case of ITDSYPVVKRREGPAGHSKGELQP [A23Q], the protein stability index is reported as 3.31. ITDSYPVVKRREGPAGHSKGELHP [A23H] showed a protein stability index of 3. ITDSYPVVKRREGPAGHSKGELPP [A23P] gave a protein stability index of 2.96. In the case of ITDSYPVVKRREGPAGHSKGELGP [A23G], the protein stability index is reported as 2.68. ITDSYPVVKRREGPAGHSKGELKP [A23K] gave a protein stability index of 3.65.

Variants of: B2
Test: as above
Conditions: c terminus: a fixed tail appended
Work on PEASHLRFRRFRFQEAHGPREALS [A17H] yielded a protein stability index of 2.33. With PEASHLRFRRFRFQEANGPREALS [A17N] the protein stability index was 2.78. PEASHLRFRRFRFQEAMGPREALS [A17M] showed a protein stability index of 2.1. For PEASHLRFRRFRFQEAPGPREALS [A17P], the protein stability index was 2.55. PEASHLRFRRFRFQEARGPREALS [A17R] gave a protein stability index of 2.15. PEASHLRFRRFRFQEAKGPREALS [A17K] gave a protein stability index of 2.94. Work on PEASHLRFRRFRFQEAWGPREALS [A17W] yielded a protein stability index of 2.69. Variant PEASHLRCRRFRFQEAAGPREALS [F8C] has a protein stability index of 2.69. With PEASHLRYRRFRFQEAAGPREALS [F8Y] the protein stability index was 2.76. With PEASHLRPRRFRFQEAAGPREALS [F8P] the protein stability index was 3.04. Work on PEASHLRVRRFRFQEAAGPREALS [F8V] yielded a protein stability index of 3.06. Variant PEASHLRRRRFRFQEAAGPREALS [F8R] has a protein stability index of 3.55. In the case of PEASHLRGRRFRFQEAAGPREALS [F8G], the protein stability index is reported as 3.29. Variant PEASHLRDRRFRFQEAAGPREALS [F8D] has a protein stability index of 3.08. Variant PEASHLRMRRFRFQEAAGPREALS [F8M] has a protein stability index of 2.8. With PEASHLRFRRFDFQEAAGPREALS [R12D] the protein stability index was 3.93. In the case of PEASHLRFRRFPFQEAAGPREALS [R12P], the protein stability index is reported as 3.39. For PEASHLRFRRFYFQEAAGPREALS [R12Y], the protein stability index was 2.4. Work on PEASHLRFRRFSFQEAAGPREALS [R12S] yielded a protein stability index of 4.05. In the case of PEASHLRFRRFVFQEAAGPREALS [R12V], the protein stability index is reported as 3.61. In the case of PEASHLRFRRFGFQEAAGPREALS [R12G], the protein stability index is reported as 3.28. PEASHLRFRRFLFQEAAGPREALS [R12L] gave a protein stability index of 2.99. For PEASHLRFRRFKFQEAAGPREALS [R12K], the protein stability index was 3.64. PEASHLRFRRFRFQEAARPREALS [G18R] gave a protein stability index of 2.65. For PEASHLRFRRFRFQEAAAPREALS [G18A], the protein stability index was 2.27.
